Results from patent publication US8273705B2, “Conversion of apoptotic proteins” (The Burnham Institute, priority 2002, dated 2012).

B1: TR3/ΔDBD: TR3 mutant with the DNA binding domain removed; used as GFP fusion (protein)
chain: MPCIQAQYGTPAPSPGPRDHLASDPLTPEFIKPTMDLASPEAAPAAPTALPSFSTFMDGYTGEFDTFLYQLPGTVQPCSSASSSASSTSSSSATSPASASFKFEDFQVYGCYPGPLSGPVDEALSSSGSDYYGSPCSAPSPSTPSFQPPQLSPWDGSFGHFSPSQTYLVLHRLQCARGFGDWIDSILAFSRSLHSLLVDVPAFACLSALVLITDRHGLQEPRRVEELQNRIASCLKEHVAAVAGEPQPASCLSRLLGKLPELRTLCTQGLQRIFYLKLEDLVPPPPIIDKIFMDTLPF
modifications: left off: large carriers; small tags and cut ends
notes: used as GFP fusion
B2: TR3/ΔDBD/Δ471-488: TR3/ΔDBD with eighteen amino acids from 471 to 488 in the DC1 region deleted (protein)
chain: MPCIQAQYGTPAPSPGPRDHLASDPLTPEFIKPTMDLASPEAAPAAPTALPSFSTFMDGYTGEFDTFLYQLPGTVQPCSSASSSASSTSSSSATSPASASFKFEDFQVYGCYPGPLSGPVDEALSSSGSDYYGSPCSAPSPSTPSFQPPQLSPWDGSFGHFSPSQTYLVLFSRSLHSLLVDVPAFACLSALVLITDRHGLQEPRRVEELQNRIASCLKEHVAAVAGEPQPASCLSRLLGKLPELRTLCTQGLQRIFYLKLEDLVPPPPIIDKIFMDTLPF
modifications: left off: large carriers; small tags and cut ends
notes: TR3/ΔDBD with eighteen amino acids from 471 to 488 in the DC1 region deleted

Key:
Type in all cases: cell-based, human
HEK293T cells = experiment: Subcellular fractionation, heavy membrane (HM) fractions of HEK293T cells
Experimental: Subcellular localization assays—Cells were seeded onto cover-slips in 6-well plates overnight, then transiently transfected with GFP-fusion expression plasmids. After 16 hours, cells were washed with PBS and fixed in 4% paraformaldehyde. For mitochondrial staining, cells were then incubated with anti-Hsp60 goat IgG (Santa Cruz, USA), followed by anti-goat IgG conjugated with Cy3 (Sigma). For cyt c staining, cells were incubated with monoclonal anti-cyt c IgG (PharMingen), followed by anti-mouse IgG conjugated with Cy5 (Amersham). Fluorescent images were collected and analyzed using a MRC-1024 MP laser-scanning confocal microscope (Bio-Rad). Subcellular fractionation assays were performed as described (Li, et al. 2000 Science 289:1159-1164). Briefly, cells (1×10^7 cells) suspended in 0.5 ml hypotonic buffer (5 mM Tris-HCl, pH 7.4, 5 mM KCl, 1.5 mM MgCl2, 0.1 mM EGTA, pH 8.0, and 1 mM DTT) were homogenized and cell extracts were centrifuged at 500×g for 5 min. The resulting supernatant was centrifuged at 10,000×g for 30 min at 4° C. to obtain the HM fraction. HM fraction was resuspended in 100 μl lysis buffer (10 mM Tris, pH 7.4, 150 mM NaCl, 1% Triton X-100, 5 mM EDTA, pH 8.0) for immunoblotting analysis. […]

293T cells [1] = experiment: DAPI apoptosis assay in 293T cells
Experimental: Apoptosis assays—For nuclear morphological change analysis, cells were trypsinized, washed with PBS, fixed with 3.7% paraformaldehyde, and stained with DAPI (4,6-diamidino-2-phenylindole) (50 μg/ml) to visualize the nuclei by UV-microscopy. The percentages of apoptotic cells were determined by counting 300 GFP-positive cells, scoring cells having nuclear fragmentation and/or chromatin condensation.
DAPI staining was used to study the apoptotic effect of TR3/Bcl-2 interaction. 293T cells were transfected with GFP-TR3/ΔDBD alone or together with Bcl-2. After 36 h, nuclei were stained by DAPI and nuclear fragmentation and chromatin condensation were identified. Cells were also stained with anti-Bcl-2 antibody, followed by TRITC-conjugated secondary antibody (Sigma). Bcl-2 and GFP-ΔDBD expression and nuclear morphology were visualized by fluorescence microscopy, and the two images were overlaid. […] But, when Bcl-2 was cotransfected, a significant amount of transfected cells underwent apoptosis. For example, approximately 4% of cells transfected with either TR3/ΔDBD or Bcl-2 were apoptotic, compared to 35% of cell transfected with both. […] Cotransfection of Bcl-2, however, prevented BAX-induced apoptosis in these cells (see FIG. 4). The effect of Bcl-2 on apoptotic potential of TR3/ΔDBD in lung cancer and breast cancer cells was also investigated.
To characterize the pro-apoptotic mechanism of Bcl-2 in the setting of TR3-induced apoptosis, various TR3 mutants and Bcl-2 mutants were co-expressed in HEK293T cells. TR3 mutants were transfected into 293T cells together with or without Bcl-2 expression vector or with Bcl-2 mutants. After 36 h, nuclei were stained by DAPI. Cells displaying nuclear condensation or fragmentation were scored.
The role of various Bcl-2 mutants in mediating apoptosis induction by TR3 was next studied. […] The hydrophobic cleft of Bcl-2 is involved in its anti-apoptotic effect through its interaction with BH3 domain of pro-apoptotic molecules (Reed 1997 Semin Hematol 34:9-19; Reed 1997 Nature 387:773-776). To investigate whether the BH3 domain-binding motif of Bcl-2 is also involved in its apoptotic effect, various Bcl-2 mutants including Y108K Bcl-2, with a mutation in the BH3 domain-binding cleft, L137A, and G145A (all with impaired interaction with bax), were cotransfected together with TR3/ΔDBD. […] Bcl-2 mutations (Y108K, L137A, G145A) that impaired its interaction with Bax, abolished the Bcl-2 inhibitory effect on Bax-induced apoptosis, consistent with previous observations that the hydrophobic cleft of Bcl-2 is essential for its anti-apoptotic effect. […] Thus, an intact BH3 domain-binding motif in Bcl-2 is involved in its pro-apoptotic effect. In contrast to the inhibitory effect of Bcl-2 on Bax-induced apoptosis TR3/ΔDBD-induced apoptosis was augmented by co-expression of Bcl-2 in HEK293T cells.
Mitochondrial targeting of TR3 has been previously identified as being involved in its apoptotic effect. To study whether mitochondrial localization of the TR3/ΔDBD/Bcl-2 complex was involved in their apoptotic effect, TR3/ΔDBD was cotransfected with Bcl-2/ATM, a Bcl-2 lacking its transmembrane domain. […] Thus, mitochondrial localization of TR3/ΔDBD/Bcl-2 complex is involved in this apoptotic effect.

293T cells [2] = experiment: Confocal microscopy of mitochondrial targeting in 293T cells
Experimental: Subcellular localization assays—Cells were seeded onto cover-slips in 6-well plates overnight, then transiently transfected with GFP-fusion expression plasmids. After 16 hours, cells were washed with PBS and fixed in 4% paraformaldehyde. For mitochondrial staining, cells were then incubated with anti-Hsp60 goat IgG (Santa Cruz, USA), followed by anti-goat IgG conjugated with Cy3 (Sigma). For cyt c staining, cells were incubated with monoclonal anti-cyt c IgG (PharMingen), followed by anti-mouse IgG conjugated with Cy5 (Amersham). Fluorescent images were collected and analyzed using a MRC-1024 MP laser-scanning confocal microscope (Bio-Rad). Subcellular fractionation assays were performed as described (Li, et al. 2000 Science 289:1159-1164). Briefly, cells (1×10^7 cells) suspended in 0.5 ml hypotonic buffer (5 mM Tris-HCl, pH 7.4, 5 mM KCl, 1.5 mM MgCl2, 0.1 mM EGTA, pH 8.0, and 1 mM DTT) were homogenized and cell extracts were centrifuged at 500×g for 5 min. The resulting supernatant was centrifuged at 10,000×g for 30 min at 4° C. to obtain the HM fraction. HM fraction was resuspended in 100 μl lysis buffer (10 mM Tris, pH 7.4, 150 mM NaCl, 1% Triton X-100, 5 mM EDTA, pH 8.0) for immunoblotting analysis.
A. confocal microscopy—First an experiment was performed to determine whether the deletion mutant TR3/ΔDBD targets mitochondria via its interaction with Bcl-2. In confocal microscopy analysis, GFP-TR3/ΔDBD and Bcl-2 were transfected into 293T cells alone or together. […] Bcl-2, TR3/ΔDBD and mitochondria (Hsp60) were visualized using confocal microscopy and the three images were overlaid.

[3] = 293T, co-expressed with Bcl-2, 36 h, DAPI

Molecule	accumulation in HM fraction (HEK293T cells; presence of Bcl-2)	apoptosis (293T cells [1]; [3])	apoptosis (293T cells [1]; 293T, coexpression with Bcl-2/ΔTM)	apoptosis (293T cells [1]; 293T, cotransfected with Bcl-2 Y108K)	apoptotic cells (293T cells [1]; 293T, transfected alone, 36 h, DAPI)	apoptotic cells (293T cells [1]; 293T, transfected with both TR3/ΔDBD and Bcl-2, 36 h, DAPI)	apoptosis (293T cells [1]; HEK293T, co-expression with Bcl-2/ΔLoop)	apoptosis (293T cells [1]; co-expressed with Bcl-2 L137A and G145A)	apoptosis (293T cells [1]; co-expressed with Bcl-2 mutants lacking TM, BH1, BH2 or BH3 domain)	subcellular distribution (293T cells [2]; coexpressed with Bcl-2)	subcellular distribution (293T cells [2]; expressed alone)	accumulation in HM fraction (HEK293T cells; either in the absence or presence of Bcl-2)	colocalization with mitochondria (293T cells [2])
B1	accumulated in the HM fraction	augmented	did not result in apoptosis	unable to induce apoptosis	approximately 4%	35%	did not induce cell death	retained the ability to promote apoptosis	incapable of inducing apoptosis	distribution pattern overlaid extensively with that of Hsp60	diffuse distribution pattern	–	–
B2	–	failed to confer the apoptotic potential of Bcl-2	–	–	–	–	–	–	–	–	–	not found in the HM fraction	failed to colocalize with mitochondria
